# Laboratory results taken from the supplement of paper PMC9170038.
# Test system: MS2 coat protein
# Assay: apparent KD of MS2 coat protein; designed switch direction (-1 OFF switch, 1 ON switch): -1; higher = weaker reporter binding
# Procedure, shortened: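 RNA switches sharing common flanks were transcribed by stalled E. coli RNA polymerase on Illumina chips. A doubling series of SNAP-549-labelled MS2 coat protein, from 0.7 or 1.5 nM to 3 µM, was applied in Tris-HCl pH 7.5 buffer with KCl, MgCl2, BSA, DTT, tRNA and Tween-20. Each step lasted 0.8–1.5 h at the bottom of the series and 10–20 min at the top. Normalised cluster fluorescence was curve-fitted, giving apparent KD as the per-design median over clusters.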
# [1] = input ligand: microRNA oligo, concentration not stated
# [2] = Eterna round: R95, input ligand: microRNA oligo, concentration not stated
Sequence,apparent KD of MS2 coat protein (input ligand: FMN 200 uM) [µM],apparent KD of MS2 coat protein (input ligand: none) [µM],apparent KD of MS2 coat protein [2] [µM],also measured
"UAGCAUUGCCUUUGGUAGUGCUAUACAUGAGGAUCACCCAUGUAGGAUAUGGUCGGCUUUGCUGACCAGAAGGACAUGUGUAUU [MOD2 ENG3 1.04 by JL] (Eterna round: R96, puzzle: Exclusion NG 3)",0.159,0.0931,–,apparent KD of MS2 coat protein [1]: 0.0915 µM
"UUUUGCACGCUGCGGUCCUACAUGAGGAUCACCCAUGUGGUCUGGUGGCGUGGGUCGCCGGACUUGGCUCGUCUUGU [salish99_S_TOV1_R5_036] (Eterna round: R97, puzzle: Sensor, turn-off variant 1)",0.019,0.0191,–,–
"AAACAGGAAGGAUAUACAUGAGGAUCACCCAUGUAGGAAAACCUACCAAAAGACCCAAGUAGAAGGUCCGAAAA [jl-ex3-4.64 ViennaUCT mod] (Eterna round: R97, puzzle: Exclusion 3)",0.0258,0.0153,–,–
GUUAAACAUGAGGAUCACCCAUGUAAGGAUAUGCUGCGGUCGCGCUGACGUGACUGCAGCAGAAGGUACAAUUG [Mat - Mod of JL D51] (puzzle: Exclusion 1),–,–,0.0648,–
"CUUUUGUGAGGAUAUUAGUAGUAAAUAAAUAAAAUUAUUACUGAGAAGGUACAUGAGGAUCACCCAUGUUCCUU [Salish 062 v21] (Eterna round: R97, puzzle: Exclusion 4)",0.0128,0.0199,–,–
"GGUAGGUGUGACUUGGGUGACAUGAGGAUCACCCAUGUCACAAGCUUGUUGCUCGCCUUGUAAUUAACCCAUGUCAC [LRO Sensor-off var1-29 mod of Stov1-13-A1 by Brourd] (Eterna round: R97, puzzle: Sensor, turn-off variant 1)",0.0215,0.0215,–,–
"AUGUGCUGCUAAGGAUAUGUGAACUGUUUCCGAAUAGAAGGUAGCUAUACAUGAGGAUCACCCAUGUACGUGAACCGAGUAAAA [Eternabot solution 20] (Eterna round: R96, puzzle: Exclusion NG 1)",0.02,0.0246,–,apparent KD of MS2 coat protein [1]: 0.019 µM
GAGAAACAUGAGGAUCACCCAUGUGAGGAUAUGCGUACGUUGUCCGUAGGCGACGUGCGCAGAAGGCGCAAAGG [Mat - Mod of JL D86] (puzzle: Exclusion 1),–,–,0.0542,–
"CCCACAAGCUUUUUGCUCGACAUGAGGAUCACCCAUGUUGAAUGGGUUAUAUAUAUAUGAAACAUAUAUAUAUACCU [-24.7, -47.5 kcal, A 32%] (Eterna round: R97, puzzle: Sensor, turn-off variant 1)",0.0204,0.0202,–,–
"AAACAAGCGUGAGGCUCGUCUUAAAAAGCUUCAUGAAAAACAUGAGGAUCACCCAUGUAAAAUGAUCGAAAGAUCAA [JL turnoff v2 28] (Eterna round: R96, puzzle: Sensor v2, turn-off variant 2)",0.0154,0.0182,–,apparent KD of MS2 coat protein [1]: 0.0342 µM
GAGCUAUGAGGAUAUGCAUAUAUACGGAUUCGUGUGGUACUACAUGAGGAUCACCCAUGUAGAAGGCGUGGCUG [JL-ex2-2.04 mat747 mod] (puzzle: Exclusion 2),–,–,0.0162,–
"UUUAAUUUUUUUUUUUUACAAGCUUUUUGCUCGUCUUAUACAUGAGGAUCACCCAUGUGGGUAAAGGAUAAAUUAUC [JMF 25] (puzzle: Sensor v3, turn-off variant 2)",–,–,0.0391,"apparent KD of MS2 coat protein (Eterna round: R95, input ligand: FMN 200 uM): 0.0316 µM; apparent KD of MS2 coat protein (Eterna round: R95, input ligand: none): 0.0341 µM"
CUUUUGUGAGGAUAUCAGUAGUAUAAAAUAAAAUAUACUACUGAGAAGGCACAUGAGGAUCACCCAUGUUCCUC [Mat - Exclusion 4 - Mod of Salish - D71] (puzzle: Exclusion 4),–,–,0.0385,–
